Test results published in patent US20220169695A1 (published 2022).

Target: T1, NY-ESO-1 peptide on HLA-C*03:04 (human)
T1 peptide: LAMPFATPM
Assay: multimer staining
Description: FIGS. 4A-4I are graphical representations of positive staining of Jurkat 76/CD8 cells transduced with C*03:04/NY-ESO-1₉₂₋₁₀₀ TCR genes with a cognate multimer. Jurkat 76/CD8 cells transduced with the C*03:04/NY-ESO-1₉₂₋₁₀₀ TCR (FIGS. 4B, 4E, and 4H) were stained with the C*03:04/NY-ESO-1₉₂₋₁₀₀ multimer (FIG. 4B). The C*03:04/HIV gag₁₆₄₋₁₇₂ multimer (FIGS. 4D, 4E, and 4F), C*07:02/MAGE-A1₂₈₉₋₂₉₇ TCR (clone CL2; FIGS. 4C, 4F, and 4I), and an unexchanged multimer (FIGS. 4G, 4H, and 4I) were employed as controls, as well as Jurkat 76/CD8 not transduced with a TCR (FIGS. 4A, 4D, and 4G). The percentage of multimer⁺ CD8⁺ cells is shown.
T cells (1×10⁵) were incubated for 30 minutes at 37° C. in the presence of 50 nM dasatinib (LC laboratories). The cells were then washed and incubated with 5-10 μg/ml of multimer for 30 minutes at room temperature, and R-phycoerythrin-conjugated AffiniPure Fab fragment goat anti-mouse IgG1 (Jackson ImmunoResearch Laboratories) was added for 15 minutes at 4° C. Next, the cells were washed three times and costained with an anti-CD8 mAb for 15 minutes at 4° C. Dead cells were finally discriminated using the LIVE/DEAD Fixable Dead Cell Stain kit.

B1: C*03:04/NY-ESO-1 92-100 TCR (TCR, V domains shown)
Valpha: AQSVTQPDIHITVSEGASLELRCNYSYGATPYLFWYVQSPGQGLQLLLKYFSGDTLVQGIKGFEAEFKRSQSSFNLRKPSVHWSDAAEYFCAGMDSNYQLIWGAGTKLIIKP
Vbeta: NAGVTQTPKFQVLKTGQSMTLQCAQDMNHNSMYWYRQDPGMGLRLIYYSASEGTTDKGEVPNGYNVSRLNKREFSLRLESAAPSQTSVYFCASSLPLGYEQYFGPGTRLTVT
- binding result: recognises
